According to the Human Domainome abundance scans (Beltran et al. 2025):
± gives the uncertainty stated by the source.

B1: Steroid hormone receptor ERR2, residues 100 to 176; numbered along this chain, O95718 (parent)
chain: KRLCLVCGDIASGYHYGVASCEACKAFFKRTIQGNIEYSCPATNECEITKRRRKSCQACRFMKCLKVGMLKEGVRLD

Variants of: B1
Experiment: abundance fitness (aPCA) (normalised: wild type 0, dead -1); higher = more abundant; growth selection in yeast, the domain comes from the species named
Conditions: Homo sapiens

Abundance fitness: each site, then its substitutions
F27: P -0.573 ± 0.12; Q -0.945 ± 0.13; S -0.746 ± 0.093; A -0.621 ± 0.071; W -0.578 ± 0.068; H -0.765 ± 0.22; D -0.751 ± 0.18; G -0.745 ± 0.06; C -0.119 ± 0.063; R -0.715 ± 0.061; I -0.434 ± 0.16; K -0.506 ± 0.077; M -0.473 ± 0.073; N -1.01 ± 0.27; V -0.535 ± 0.064; L -0.204 ± 0.043
R30: M -0.355 ± 0.082; A -0.312 ± 0.065; H -0.357 ± 0.14; P -0.989 ± 0.26; F -0.763 ± 0.19; N -0.381 ± 0.38; E 0.125 ± 0.049; C -0.573 ± 0.12; I -0.775 ± 0.24; D -0.255 ± 0.16; T -0.193 ± 0.087; Q 0.109 ± 0.057; L -0.466 ± 0.061; W -0.121 ± 0.05; G -0.006 ± 0.037; Y -0.799 ± 0.23
I32: Q -0.422 ± 0.082; P -0.589 ± 0.16; D -0.642 ± 0.17; V 0.055 ± 0.044; E -0.148 ± 0.053; A -0.21 ± 0.054; T -0.222 ± 0.067; K -0.337 ± 0.08; M -0.47 ± 0.096; S -0.184 ± 0.059; C -0.803 ± 0.26; L -0.362 ± 0.059; N -0.568 ± 0.19; F -0.115 ± 0.12; G -0.344 ± 0.048
F28: V -0.315 ± 0.047; P -0.725 ± 0.14; S -0.832 ± 0.1; Y -0.78 ± 0.2; E -0.638 ± 0.084; C -0.843 ± 0.16; L -0.413 ± 0.051; W 0.167 ± 0.039; H -0.748 ± 0.18; N -0.922 ± 0.35; T -0.664 ± 0.12; R -0.757 ± 0.065; A -0.321 ± 0.054; G -0.687 ± 0.055; Q -0.761 ± 0.14; K -0.694 ± 0.11
Q33: W -0.411 ± 0.073; K -0.212 ± 0.094; V -0.148 ± 0.048; L -0.146 ± 0.051; D -0.081 ± 0.082; E -0.03 ± 0.06; A -0.075 ± 0.054; Y -0.054 ± 0.14; S -0.252 ± 0.067; M -0.279 ± 0.087; C -0.114 ± 0.068; T -0.193 ± 0.089; I -0.697 ± 0.22; G -0.165 ± 0.043; F -0.577 ± 0.22; H -0.229 ± 0.11; N -0.383 ± 0.13; R -0.307 ± 0.047
T31: R -0.678 ± 0.06; S -0.175 ± 0.054; I -0.295 ± 0.12; A -0.353 ± 0.061; C -0.423 ± 0.086; V -0.223 ± 0.048; P -0.951 ± 0.19; L -0.83 ± 0.083; G -0.484 ± 0.052; N -0.546 ± 0.35; F -1.1 ± 0.43; E -0.744 ± 0.12; W -0.925 ± 0.11; M -0.223 ± 0.073; D -0.724 ± 0.2; H -0.655 ± 0.18
A26: G 0.121 ± 0.036; L -0.135 ± 0.043; Q 0.051 ± 0.05; M -0.116 ± 0.058; F -0.467 ± 0.12; C -0.046 ± 0.061; K -0.229 ± 0.066; D 0.035 ± 0.081; Y -0.561 ± 0.17; H 0.095 ± 0.089; S -0.338 ± 0.063; W -0.075 ± 0.042; E 0.162 ± 0.048; V 0.114 ± 0.043; N -0.504 ± 0.17; I -0.334 ± 0.18; P -0.569 ± 0.11
K25: V 0.344 ± 0.034; T 0.146 ± 0.046; L 0.224 ± 0.033; Y 0.273 ± 0.067; P 0.278 ± 0.051; Q 0.317 ± 0.045; I 0.091 ± 0.063; E 0.41 ± 0.037; D 0.375 ± 0.049; H 0.262 ± 0.062; F 0.194 ± 0.063; G 0.41 ± 0.029; R 0.208 ± 0.031; M 0.286 ± 0.048; S 0.222 ± 0.04
G34: I -0.336 ± 0.2; M -0.041 ± 0.062; V -0.186 ± 0.046; Q 0.254 ± 0.057; Y 0.075 ± 0.1; N -0.058 ± 0.15; F 0.144 ± 0.072; D 0.116 ± 0.092; H -0.282 ± 0.12; E 0.157 ± 0.051; C -0.227 ± 0.078; W -0.08 ± 0.048; T -0.088 ± 0.063; A 0.135 ± 0.043; P -0.904 ± 0.18; R -0.033 ± 0.037
N35: E 0.157 ± 0.046; D 0.111 ± 0.079; A 0.069 ± 0.045; C -0.12 ± 0.073; F -0.275 ± 0.12
K29: D -0.014 ± 0.072; H -0.067 ± 0.1; G 0.096 ± 0.034; Y -0.65 ± 0.25; V 0.079 ± 0.038; F -0.132 ± 0.087; Q 0.129 ± 0.054; P -0.841 ± 0.16; I -0.481 ± 0.12; S 0.084 ± 0.045; C -0.335 ± 0.11; N -0.193 ± 0.11; E 0.217 ± 0.053; T 0.215 ± 0.049; A 0.18 ± 0.043; R 0.085 ± 0.039; M -0.064 ± 0.065
